B1: VH:VL chains; a variant is named by its letters at X, in order (parent)
chain 1: QVQLVQSGAEVKKPGASVKVSCKASGYTFTDYXMHWVRQAPGQGLEWMGXVNPNXXXTTYNQKFEGRVTMTTDTSTSTAYMELRSLRSDDTAVYYCARXNXLDXWGQGTTVTVSS
chain 2: DIQMTQSPSSLSASVGDRVTITCSVSSSVSSIYLHWYQQKPGKAPKLLIYSTSNLASGVPSRFSGSGSGTDFTLTISSLQPEDFATYYCQVYSGYPLTFGGGTKVEIK

Variants of: B1
Experiment: yeast display scFab, FACS + sequencing
Summary of the method: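 Heavy-chain CDR mutant scFab yeast surface library, FACS-sorted after labelling with biotinylated ovalbumin (260 μg/mL in PBSB, 3 h, room temperature) or soluble membrane proteins (130 μg/mL, 20 min on ice), plus anti-Myc. Gates collected the top 25% and bottom 10% of binders, and samples from two replicates were deep sequenced. Non-specific binding call: a sequence was positive if found in ≥3 of 4 positive samples (membrane protein and ovalbumin pooled) and no negatives, and negative by the converse rule.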
With SKKRGASA the non-specific binding call was “binds”. For FKKEGYGD, the non-specific binding call was “binds”. With YKGRGYWY the non-specific binding call was “binds”. In the case of AKKRGAWS, the non-specific binding call is reported as “binds”. In the case of YKRGSSSY, the non-specific binding call is reported as “binds”. With YKRGSSSD the non-specific binding call was “binds”. For VKGRSDSA, the non-specific binding call was “no binding”. With YKRGSAAA the non-specific binding call was “binds”. For FKRGSSSY, the non-specific binding call was “binds”. For SKKRGAAA, the non-specific binding call was “binds”. For YKGRGSLV, the non-specific binding call was “binds”. In the case of YKGRGSLY, the non-specific binding call is reported as “binds”. For YKGRGSLF, the non-specific binding call was “binds”. With YKGRGSLA the non-specific binding call was “binds”. For VKRGSSVD, the non-specific binding call was “binds”. For YKREGSAV, the non-specific binding call was “no binding”. In the case of FKRRDSVY, the non-specific binding call is reported as “binds”. In the case of YKKTGDLY, the non-specific binding call is reported as “no binding”. With YKRGSASD the non-specific binding call was “binds”. For YKRGSASV, the non-specific binding call was “binds”. In the case of VKREASVV, the non-specific binding call is reported as “binds”. With SKKGDFWV the non-specific binding call was “binds”. With YKRGSAGF the non-specific binding call was “binds”. With YKRGSAGD the non-specific binding call was “binds”. In the case of YKGRGYGD, the non-specific binding call is reported as “binds”. With YKGRGYGF the non-specific binding call was “binds”. For YKGRGYGA, the non-specific binding call was “binds”. In the case of VKKTGDLY, the non-specific binding call is reported as “no binding”. In the case of SKKRGSWD, the non-specific binding call is reported as “binds”. In the case of YKGRSASV, the non-specific binding call is reported as “no binding”. For SKGRGAVY, the non-specific binding call was “binds”. With YKGTDAWY the non-specific binding call was “no binding”. With SKRKSSSD the non-specific binding call was “binds”. In the case of VKGRSVGY, the non-specific binding call is reported as “binds”. With VKRGSSGA the non-specific binding call was “binds”. In the case of VKRGSSGD, the non-specific binding call is reported as “binds”. In the case of YKGRSAAA, the non-specific binding call is reported as “binds”. For FKGRGSAA, the non-specific binding call was “binds”. For FKGRGSAD, the non-specific binding call was “binds”. With YKRAAVWD the non-specific binding call was “binds”. In the case of VKGRSDGV, the non-specific binding call is reported as “no binding”. With VKGTGVAY the non-specific binding call was “binds”. In the case of FKKRGAWS, the non-specific binding call is reported as “binds”. With YKRGAAWS the non-specific binding call was “binds”. With YKGRGSWF the non-specific binding call was “binds”. For YKGRGSWS, the non-specific binding call was “binds”. With YKRGSSVD the non-specific binding call was “binds”. For YKRGSSVS, the non-specific binding call was “binds”. For YKRGSSVV, the non-specific binding call was “binds”. In the case of FKGRGVWV, the non-specific binding call is reported as “binds”. In the case of YKRGDDSS, the non-specific binding call is reported as “no binding”. For FKKGSSWD, the non-specific binding call was “binds”. In the case of VKRATVLA, the non-specific binding call is reported as “binds”. In the case of VKRGSSLF, the non-specific binding call is reported as “binds”. For YKGRGALS, the non-specific binding call was “binds”. With YKGRGALY the non-specific binding call was “binds”. For YKKGSSLF, the non-specific binding call was “binds”. With FKGRGAVD the non-specific binding call was “binds”. In the case of FKGRGAVY, the non-specific binding call is reported as “binds”. For YKKGGSLD, the non-specific binding call was “binds”. For YKKGGSLA, the non-specific binding call was “binds”. For SKRETAWS, the non-specific binding call was “binds”. For SKKRGAWY, the non-specific binding call was “binds”. With SKKRGAWA the non-specific binding call was “binds”. In the case of YKGRGASS, the non-specific binding call is reported as “binds”. In the case of YKGRGASA, the non-specific binding call is reported as “binds”. In the case of YKGRGASV, the non-specific binding call is reported as “binds”. In the case of YKGRGASD, the non-specific binding call is reported as “binds”. With VKKRGAWS the non-specific binding call was “binds”. With FKGRGSGV the non-specific binding call was “binds”. In the case of FKGRGSGY, the non-specific binding call is reported as “binds”. In the case of VKRRDSGD, the non-specific binding call is reported as “binds”. With DKRKGVSD chain 1 S88F the non-specific binding call was “binds”. For YKGRGDAD, the non-specific binding call was “binds”. In the case of FKRGSSLD, the non-specific binding call is reported as “binds”. For FKRGSSLF, the non-specific binding call was “binds”. With FKGRGSLY the non-specific binding call was “binds”. With FKGRGSLA the non-specific binding call was “binds”. In the case of FKGRGSLS, the non-specific binding call is reported as “binds”. For SKGTDDWV, the non-specific binding call was “no binding”. In the case of YKGRGSAY, the non-specific binding call is reported as “binds”. With YKGRGSAF the non-specific binding call was “binds”. In the case of YKRGDDLV, the non-specific binding call is reported as “no binding”. For VKGRGVGA, the non-specific binding call was “binds”. In the case of VKGRGVGY, the non-specific binding call is reported as “binds”. In the case of VKKEDAGD, the non-specific binding call is reported as “no binding”. In the case of DKREADGA, the non-specific binding call is reported as “no binding”. With YKRAAYGD the non-specific binding call was “binds”. With FKGRSASY the non-specific binding call was “binds”. For FKGRGAWV, the non-specific binding call was “binds”. For FKGRGAWS, the non-specific binding call was “binds”. With YKRGGSGD the non-specific binding call was “binds”. With YKGRGFVY the non-specific binding call was “binds”. In the case of VKGRGSSF, the non-specific binding call is reported as “no binding”. For YKRGSAVD, the non-specific binding call was “binds”. For VKGTGFLD, the non-specific binding call was “binds”. In the case of VKGRSDVY, the non-specific binding call is reported as “no binding”. With VKRGDDVV the non-specific binding call was “no binding”. In the case of VKRGDDVA, the non-specific binding call is reported as “no binding”. For DKGTDVGA, the non-specific binding call was “binds”. For YKGRGVVV, the non-specific binding call was “binds”. In the case of YKRGDDGD, the non-specific binding call is reported as “no binding”. With VKGRSDAS the non-specific binding call was “no binding”. For FKKKDASV, the non-specific binding call was “binds”. With YKRRDSVD the non-specific binding call was “binds”. For DKGRSVGV, the non-specific binding call was “no binding”. In the case of YKRGGAAA, the non-specific binding call is reported as “binds”. With YKRGSFVD the non-specific binding call was “binds”. For YKRGSFGA, the non-specific binding call was “binds”. In the case of SKGRSSLA, the non-specific binding call is reported as “no binding”. In the case of VKGRGYGA, the non-specific binding call is reported as “binds”. With YKGRGYSY the non-specific binding call was “binds”. With AKRGSAAV the non-specific binding call was “binds”. With YKRGSSWD the non-specific binding call was “binds”. With FKRGSSAA the non-specific binding call was “binds”. In the case of YKRGSAWD, the non-specific binding call is reported as “binds”. For YKRGSAWV, the non-specific binding call was “binds”. For VKGRGDSF, the non-specific binding call was “no binding”. With YKRGAAGD the non-specific binding call was “binds”. With FKKGSFGA the non-specific binding call was “binds”. For YKGRGYVA, the non-specific binding call was “binds”. For YKRKSASD, the non-specific binding call was “binds”. With FKGRGFGV the non-specific binding call was “binds”. In the case of FKKGDAVS, the non-specific binding call is reported as “binds”. For FKKGSAAV, the non-specific binding call was “binds”.
